Measurements as given in patent publication CN113683697A (SHANGHAI XIANGYAO BIOTECHNOLOGY CO LTD, dated 2021).

B1: scFv-27B4-H3-L5 (scFv)
scFv: QVQLVQSGSELKKPGASVKVSCKASGYTFTTYWMNWVRQAPGQGLEWMGWIYPGDGGSTYAQGFTGRFVFSLDTSVSTAYLQICSLKAEDTAVYYCARGGNYISFPMYYWGQGTLVTVSSGGGGSGGGGSGGGGSGGGGASDIVMTQTPLSLSVTPGQPASISCKASRGVSTALYWYLQKPGQPPQLLIYWASNRFSGVPDRFSGSGSGTDFTLKISRVEAEDVGVYYCQQHYDTPYTFGQGTKLEIK
notes: VH-linker-VL in phage display vector pXY, expressed in TG1, purified on a nickel column
B2: scFv-27B4-H4-L1 (scFv)
scFv: EVQLVQSGAEVKKPGESLKISCKASGYTFTTYWIGWVRQMPGKGLEWMGIIYPGDGGSRYSPSFQGQVTISADKSISTAYLQWSSLKASDTAMYYCARGGNYISFPMYYWGQGTLVTVSSGGGGSGGGGSGGGGSGGGGASDIQMTQSPSSLSASMGDRVTITCKASRGVSTALNWYQQKPGKAPKLLIYWASSLQSGVPSRFSGSGSGTDFTLTISSLQPEDFATYYCQQHYDTPYTFGQGTKLEIK
notes: as for B1
B3: scFv-27B4-H4-L2 (scFv)
scFv: EVQLVQSGAEVKKPGESLKISCKASGYTFTTYWIGWVRQMPGKGLEWMGIIYPGDGGSRYSPSFQGQVTISADKSISTAYLQWSSLKASDTAMYYCARGGNYISFPMYYWGQGTLVTVSSGGGGSGGGGSGGGGSGGGGASVIWMTQSPSLLSASTGDRVTISCKASRGVSTALAWYQQKPGKAPELLIYWASTLQSGVPSRFSGSGSGTDFTLTISCLQSEDFATYYCQQHYDTPYTFGQGTKLEIK
notes: Expressed from phage display vector pXY in TG1, purified on a nickel column
B4: scFv-27B4-H4-L3 (scFv)
scFv: EVQLVQSGAEVKKPGESLKISCKASGYTFTTYWIGWVRQMPGKGLEWMGIIYPGDGGSRYSPSFQGQVTISADKSISTAYLQWSSLKASDTAMYYCARGGNYISFPMYYWGQGTLVTVSSGGGGSGGGGSGGGGSGGGGASEIVMTQSPATLSVSPGERATLSCKASRGVSTALAWYQQKPGQAPRLLIYWASTRATGIPARFSGSGSGTEFTLTISSLQSEDFAVYYCQQHYDTPYTFGQGTKLEIK
notes: as for B3
B5: scFv-27B4-H4-L4 (scFv)
scFv: EVQLVQSGAEVKKPGESLKISCKASGYTFTTYWIGWVRQMPGKGLEWMGIIYPGDGGSRYSPSFQGQVTISADKSISTAYLQWSSLKASDTAMYYCARGGNYISFPMYYWGQGTLVTVSSGGGGSGGGGSGGGGSGGGGASEIVLTQSPDFQSVTPKEKVTITCKASRGVSTALHWYQQKPDQSPKLLIKWASQSFSGVPSRFSGSGSGTDFTLTINSLEAEDAATYYCQQHYDTPYTFGQGTKLEIK
notes: as for B1
B6: scFv-27B4-H4-L5 (scFv)
scFv: EVQLVQSGAEVKKPGESLKISCKASGYTFTTYWIGWVRQMPGKGLEWMGIIYPGDGGSRYSPSFQGQVTISADKSISTAYLQWSSLKASDTAMYYCARGGNYISFPMYYWGQGTLVTVSSGGGGSGGGGSGGGGSGGGGASDIVMTQTPLSLSVTPGQPASISCKASRGVSTALYWYLQKPGQPPQLLIYWASNRFSGVPDRFSGSGSGTDFTLKISRVEAEDVGVYYCQQHYDTPYTFGQGTKLEIK
notes: as for B1
B7: scFv-27B4-H5-L1 (scFv)
scFv: QVQLVESGGGVVQPGRSLRLSCKASGYTFTTYWMHWVRQAPGKGLEWVAVIYPGDGGSYYTDSVKGRFTISRDNSKNTLYLQMNSLRAEDTAVYYCARGGNYISFPMYYWGQGTLVTVSSGGGGSGGGGSGGGGSGGGGASDIQMTQSPSSLSASMGDRVTITCKASRGVSTALNWYQQKPGKAPKLLIYWASSLQSGVPSRFSGSGSGTDFTLTISSLQPEDFATYYCQQHYDTPYTFGQGTKLEIK
notes: as for B1
B8: scFv-27B4-H5-L2 (scFv)
scFv: QVQLVESGGGVVQPGRSLRLSCKASGYTFTTYWMHWVRQAPGKGLEWVAVIYPGDGGSYYTDSVKGRFTISRDNSKNTLYLQMNSLRAEDTAVYYCARGGNYISFPMYYWGQGTLVTVSSGGGGSGGGGSGGGGSGGGGASVIWMTQSPSLLSASTGDRVTISCKASRGVSTALAWYQQKPGKAPELLIYWASTLQSGVPSRFSGSGSGTDFTLTISCLQSEDFATYYCQQHYDTPYTFGQGTKLEIK
notes: as for B1
B9: scFv-27B4-H5-L3 (scFv)
scFv: QVQLVESGGGVVQPGRSLRLSCKASGYTFTTYWMHWVRQAPGKGLEWVAVIYPGDGGSYYTDSVKGRFTISRDNSKNTLYLQMNSLRAEDTAVYYCARGGNYISFPMYYWGQGTLVTVSSGGGGSGGGGSGGGGSGGGGASEIVMTQSPATLSVSPGERATLSCKASRGVSTALAWYQQKPGQAPRLLIYWASTRATGIPARFSGSGSGTEFTLTISSLQSEDFAVYYCQQHYDTPYTFGQGTKLEIK
notes: as for B1
B10: scFv-27B4-H5-L4 (scFv)
scFv: QVQLVESGGGVVQPGRSLRLSCKASGYTFTTYWMHWVRQAPGKGLEWVAVIYPGDGGSYYTDSVKGRFTISRDNSKNTLYLQMNSLRAEDTAVYYCARGGNYISFPMYYWGQGTLVTVSSGGGGSGGGGSGGGGSGGGGASEIVLTQSPDFQSVTPKEKVTITCKASRGVSTALHWYQQKPDQSPKLLIKWASQSFSGVPSRFSGSGSGTDFTLTINSLEAEDAATYYCQQHYDTPYTFGQGTKLEIK
notes: as for B1
B11: scFv-27B4-H5-L5 (scFv)
scFv: QVQLVESGGGVVQPGRSLRLSCKASGYTFTTYWMHWVRQAPGKGLEWVAVIYPGDGGSYYTDSVKGRFTISRDNSKNTLYLQMNSLRAEDTAVYYCARGGNYISFPMYYWGQGTLVTVSSGGGGSGGGGSGGGGSGGGGASDIVMTQTPLSLSVTPGQPASISCKASRGVSTALYWYLQKPGQPPQLLIYWASNRFSGVPDRFSGSGSGTDFTLKISRVEAEDVGVYYCQQHYDTPYTFGQGTKLEIK
notes: as for B1
B12: h27B4-H2-L2 (antibody, human IgG1, kappa, V domains shown)
VH: QVQLVQSGAEVKKPGSSVKVSCKASGYTFTTYWISWVRQAPGQGLEWMGGIYPGDGGSNYAQKFQGRVTITADESTSTAYMELSSLRSEDTAVYYCARGGNYISFPMYYWGQGTLVTVSS
VL: VIWMTQSPSLLSASTGDRVTISCKASRGVSTALAWYQQKPGKAPELLIYWASTLQSGVPSRFSGSGSGTDFTLTISCLQSEDFATYYCQQHYDTPYTFGQGTKLEIKR
notes: Whole IgG, humanized; optimized hIgG1 (L235V, F243L, R292P, Y300L, P396L) and human kappa; also called zw.M0883B9.27B4Z01
B13: 嵌合抗体xw.M0883B9.27B4 (antibody, human IgG1, kappa, V domains shown)
VH: QVQLQQSGAELARPGASVKLSCKASGYTFTTYWMQWIQQRPGQGLEWIGAIYPGDGGSRYTQRFKGKATMTADPSSSTVYMQLTSLASEDSAVYFCARGGNYISFPMYYWGQGTSVTVSP
VL: DIVMTQSHKFMSTSVGDRVSITCKASRGVSTAVAWYQQKPGQSPKLLIYWASTRHTGVPDRFTGSGSGTDYTLTISSVQAEDLALYYCQQHYDTPYTFGGGTKLEIQR
notes: also called 嵌合抗体27B4; 27B4嵌合抗体
B14: h27B4-H4-L3 (antibody, human IgG1, kappa, V domains shown)
VH: EVQLVQSGAEVKKPGESLKISCKASGYTFTTYWIGWVRQMPGKGLEWMGIIYPGDGGSRYSPSFQGQVTISADKSISTAYLQWSSLKASDTAMYYCARGGNYISFPMYYWGQGTLVTVSS
VL: EIVMTQSPATLSVSPGERATLSCKASRGVSTALAWYQQKPGQAPRLLIYWASTRATGIPARFSGSGSGTEFTLTISSLQSEDFAVYYCQQHYDTPYTFGQGTKLEIKR
notes: Whole IgG, humanized; optimized hIgG1 (L235V, F243L, R292P, Y300L, P396L) and human kappa; also called zw.M0883B9.27B4Z02; 27B4Z02分子
B15: h27B4-H2-L3 (antibody, human IgG1, kappa, V domains shown)
VH: QVQLVQSGAEVKKPGSSVKVSCKASGYTFTTYWISWVRQAPGQGLEWMGGIYPGDGGSNYAQKFQGRVTITADESTSTAYMELSSLRSEDTAVYYCARGGNYISFPMYYWGQGTLVTVSS
VL: EIVMTQSPATLSVSPGERATLSCKASRGVSTALAWYQQKPGQAPRLLIYWASTRATGIPARFSGSGSGTEFTLTISSLQSEDFAVYYCQQHYDTPYTFGQGTKLEIKR
notes: Whole IgG, humanized; optimized hIgG1 (L235V, F243L, R292P, Y300L, P396L) and human kappa; also called zw.M0883B9.27B4Z03
B16: h27B4-H4-L2 (antibody, human IgG1, kappa, V domains shown)
VH: EVQLVQSGAEVKKPGESLKISCKASGYTFTTYWIGWVRQMPGKGLEWMGIIYPGDGGSRYSPSFQGQVTISADKSISTAYLQWSSLKASDTAMYYCARGGNYISFPMYYWGQGTLVTVSS
VL: VIWMTQSPSLLSASTGDRVTISCKASRGVSTALAWYQQKPGKAPELLIYWASTLQSGVPSRFSGSGSGTDFTLTISCLQSEDFATYYCQQHYDTPYTFGQGTKLEIKR
notes: Whole IgG, humanized; optimized hIgG1 (L235V, F243L, R292P, Y300L, P396L) and human kappa; also called zw.M0883B9.27B4Z04
B17: MGA-271 (NCT02475213) (antibody, V domains shown)
VH: EVQLVESGGGLVQPGGSLRLSCAASGFTFSSFGMHWVRQAPGKGLEWVAYISSDSSAIYYADTVKGRFTISRDNAKNSLYLQMNSLRDEDTAVYYCGRGRENIYYGSRLDYWGQGTTVTVSS
VL: DIQLTQSPSFLSASVGDRVTITCKASQNVDTNVAWYQQKPGKAPKALIYSASYRYSGVPSRFSGSGSGTDFTLTISSLQPEDFATYYCQQYNNYPFTFGQGTKLEIK

Tests used:
[1] = biological target: T1, B7-H3 (4Ig-B7-H3) endogenously expressed on MDA-MB-231 cells (UniProt Q5ZPR3 29-534, limits assumed); test: FACS, MDA-MB-231 cells
T1 construct: whole, on cells; also called 细胞表面的B7-H3抗原
T1 sequence (looked up): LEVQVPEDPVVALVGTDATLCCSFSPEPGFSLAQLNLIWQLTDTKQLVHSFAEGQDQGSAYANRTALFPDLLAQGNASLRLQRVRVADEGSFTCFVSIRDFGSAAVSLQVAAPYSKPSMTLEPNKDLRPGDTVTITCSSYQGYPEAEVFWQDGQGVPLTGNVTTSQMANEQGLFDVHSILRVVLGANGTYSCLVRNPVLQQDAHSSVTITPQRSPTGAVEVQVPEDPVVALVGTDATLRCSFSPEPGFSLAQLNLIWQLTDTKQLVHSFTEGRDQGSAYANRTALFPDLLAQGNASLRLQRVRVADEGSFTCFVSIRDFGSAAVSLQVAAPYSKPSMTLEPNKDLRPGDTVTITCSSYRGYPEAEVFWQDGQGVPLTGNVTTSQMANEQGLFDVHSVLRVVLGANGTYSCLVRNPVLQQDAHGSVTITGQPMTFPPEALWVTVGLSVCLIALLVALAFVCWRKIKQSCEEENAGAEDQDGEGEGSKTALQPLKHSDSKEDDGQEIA

[2] = biological target: T2, 人B7-H3变体1(4Ig-B7-H3) on stable cells 293-h4Ig-B7-H3-copGFP (human, UniProt Q5ZPR3 29-534); test: FACS, 293-h4Ig-B7-H3-copGFP stable cells
T2 construct: Full-length CDS cloned in pCDH-EF1-T2A-copGFP and expressed on stably transduced cells; residues left by T2A cleavage not described
T2 sequence: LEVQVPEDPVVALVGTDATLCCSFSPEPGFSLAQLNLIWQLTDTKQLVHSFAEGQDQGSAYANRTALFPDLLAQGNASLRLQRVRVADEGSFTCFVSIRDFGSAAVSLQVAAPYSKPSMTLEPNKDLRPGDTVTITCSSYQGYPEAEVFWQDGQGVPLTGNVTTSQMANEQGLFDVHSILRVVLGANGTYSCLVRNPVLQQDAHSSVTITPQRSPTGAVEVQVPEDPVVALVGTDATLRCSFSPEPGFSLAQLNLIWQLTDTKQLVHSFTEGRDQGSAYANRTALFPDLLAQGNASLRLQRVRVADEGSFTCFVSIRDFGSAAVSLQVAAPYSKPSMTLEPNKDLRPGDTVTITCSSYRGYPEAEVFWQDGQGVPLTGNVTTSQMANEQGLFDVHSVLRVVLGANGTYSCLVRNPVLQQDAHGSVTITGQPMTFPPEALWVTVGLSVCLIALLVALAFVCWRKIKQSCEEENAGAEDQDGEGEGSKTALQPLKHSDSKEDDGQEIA

[3] = biological target: T1, B7-H3 (4Ig-B7-H3) endogenously …; test: FACS titration on MDA-MB-231 cells

Row | Binder | binding result [1] | binding result [2] | EC50 [3]
1 | B1 | binds | binds | –
2 | B2 | binds | binds | –
3 | B3 | binds | binds | –
4 | B4 | binds | binds | –
5 | B5 | binds | binds | –
6 | B6 | binds | binds | –
7 | B7 | binds | binds | –
8 | B8 | binds | binds | –
9 | B9 | binds | binds | –
10 | B10 | binds | binds | –
11 | B11 | binds | binds | –
12 | B12 | binds | binds | –
13 | B13 | – | – | 3.2 µg/mL
14 | B14 | binds | binds | –
15 | B15 | binds | binds | –
16 | B16 | binds | binds | –
17 | B17 | – | – | 23.8 µg/mL
